From publication PMC7018876, “The novel llama-human chimeric antibody has potent effect in lowering LDL-c levels in hPCSK9 transgenic rats” (Clinical and Translational Medicine, 2020)

B1: VHH-A6 (VHH)
VHH: PGAAAGVGGGSVQAGGSLRLSCAASRYTDRTRCIAWFRQVPGKEREGVACLDRAGGQSAYADSAKGRFTVSQDNAGNTVYLQMDNLIPEDSAMYYCAAAGVGQWYTCLQKFIRDKRSFANWGQGTQVTVSS
notes: llama anti-hPCSK9 VHH from an immune phage library; source: E. coli, supernatant of TES lysate (screening); E. coli induced by IPTG, and Pichia pastoris X33, purified (Histrap FF column)
B2: VHH-B11 (VHH)
VHH: EVQLVESGGGSVQAGGSLRLSCTVSGYTYSSNCMGWFRQAPGKEHEGVASIYIGGGSTYYADSVKGRFTISQDNAKNTVYLQMNSLKPEDTAMYYCAVGCQGLVDFGYWDQGTQVTVSS
notes: llama anti-hPCSK9 VHH from an immune phage library; 17 kDa on SDS-PAGE; also called monovalent VHH-B11; monovalency VHH-B11; source: E. coli, supernatant of TES lysate (screening); E. coli induced by IPTG, and Pichia pastoris X33, purified (Histrap FF column)
B3: VHH-G8 (VHH)
VHH: DVQLVESGGGSVQAGGSLTLSCVVSGYRGQKICTGWFRQFPGMEREAVARILPRGPNTQYTDSVKGRFTISQDAAKNTVNLQMSSLKPKDTAMYYCAQGWGGASDWALQPRRYNYWGQGTQVTVSS
notes: as for B1
B4: VHH-H12 (VHH)
VHH: GGGLVQAGGSLRLSCAASRSTFSGYAMAWFRQAPGKEREFVACIEREIPGHPAWSGLTYYADSKKGRFTISRDNAKNTVYLQMNSLKPEDTAVYYCAAGLKYPAQKHYDYDYWGQGTQVTVPS
notes: as for B1

target: T1, human proprotein convertase subtilisin/kexin type 9, his tagged antigen (Homo sapiens, UniProt Q8NBP7); test: SPR; hPCSK9-his on CM5 chip (~800 RU); 6 or 7-point two-fold dilutions of the VHH-based proteins injected; 25 °C; global fit with floating Rmax; Biacore T200; details: both partners purified
T1 construct: human PCSK9; also called hPCSK9; PCSK9; source: bought: Sinobiological, China, Cat# 29698-H08H
T1 sequence (Q8NBP7 31-692): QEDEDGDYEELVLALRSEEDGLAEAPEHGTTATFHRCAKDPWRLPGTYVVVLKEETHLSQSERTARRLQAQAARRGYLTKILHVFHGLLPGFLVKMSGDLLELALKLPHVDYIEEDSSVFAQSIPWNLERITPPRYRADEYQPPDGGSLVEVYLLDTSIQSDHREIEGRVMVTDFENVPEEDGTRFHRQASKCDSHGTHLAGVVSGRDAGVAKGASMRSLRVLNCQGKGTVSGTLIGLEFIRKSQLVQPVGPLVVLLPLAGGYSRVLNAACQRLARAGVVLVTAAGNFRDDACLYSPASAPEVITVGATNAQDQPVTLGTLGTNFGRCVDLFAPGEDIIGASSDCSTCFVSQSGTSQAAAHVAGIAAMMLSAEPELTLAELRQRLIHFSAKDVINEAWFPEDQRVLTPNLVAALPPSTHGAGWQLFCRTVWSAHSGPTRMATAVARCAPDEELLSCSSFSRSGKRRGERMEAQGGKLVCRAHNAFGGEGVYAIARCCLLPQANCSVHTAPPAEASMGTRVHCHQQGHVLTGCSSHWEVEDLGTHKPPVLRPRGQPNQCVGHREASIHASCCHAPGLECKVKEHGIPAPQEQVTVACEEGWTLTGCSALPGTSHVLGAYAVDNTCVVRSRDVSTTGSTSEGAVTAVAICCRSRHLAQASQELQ

Row | Binder | Kd [nM] | koff [s⁻¹] | kon [M⁻¹ s⁻¹]
1 | B1 | 29 | 0.000447 | 15400
2 | B2 | 8.69 | 0.00235 | 271000
3 | B3 | 73 | 0.0114 | 162000
4 | B4 | 704 | 0.00524 | 7440

target: T1, human proprotein convertase …; test: SPR; lysate kinetics screening; hPCSK9-his immobilised on CM5 chip (~18000 RU); supernatants of TES lysates of clones flowed over; 25 °C; binding 120 s, dissociation 140 s; binding value read at ~120 s, stability value at ~135 s; Biacore T200; details: one partner purified

Row | Binder | binding value (RU) | stability value (RU)
5 | B1 | 166 | 239
6 | B2 | 409 | 472
7 | B3 | 132 | 160
8 | B4 | 272 | 373
